# Measured values taken from IntAct's records for PubMed 20876572.
# B1: Methylmalonic aciduria type A protein, mitochondrial (Homo sapiens), Q8IVH4 (parent)
# chain: MPMLLPHPHQHFLKGLLRAPFRCYHFIFHSSTHLGSGIPCAQPFNSLGLHCTKWMLLSDGLKRKLCVQTTLKDHTEGLSDKEQRFVDKLYTGLIQGQRACLAEAITLVESTHSRKKELAQVLLQKVLLYHREQEQSNKGKPLAFRVGLSGPPGAGKSTFIEYFGKMLTERGHKLSVLAVDPSSCTSGGSLLGDKTRMTELSRDMNAYIRPSPTRGTLGGVTRTTNEAILLCEGAGYDIILIETVGVGQSEFAVADMVDMFVLLLPPAGGDELQGIKRGIIEMADLVAVTKSDGDLIVPARRIQAEYVSALKLLRKRSQVWKPKVIRISARSGEGISEMWDKMKDFQDLMLASGELTAKRRKQQKVWMWNLIQESVLEHFRTHPTVREQIPLLEQKVLIGALSPGLAADFLLKAFKSRD
# partner: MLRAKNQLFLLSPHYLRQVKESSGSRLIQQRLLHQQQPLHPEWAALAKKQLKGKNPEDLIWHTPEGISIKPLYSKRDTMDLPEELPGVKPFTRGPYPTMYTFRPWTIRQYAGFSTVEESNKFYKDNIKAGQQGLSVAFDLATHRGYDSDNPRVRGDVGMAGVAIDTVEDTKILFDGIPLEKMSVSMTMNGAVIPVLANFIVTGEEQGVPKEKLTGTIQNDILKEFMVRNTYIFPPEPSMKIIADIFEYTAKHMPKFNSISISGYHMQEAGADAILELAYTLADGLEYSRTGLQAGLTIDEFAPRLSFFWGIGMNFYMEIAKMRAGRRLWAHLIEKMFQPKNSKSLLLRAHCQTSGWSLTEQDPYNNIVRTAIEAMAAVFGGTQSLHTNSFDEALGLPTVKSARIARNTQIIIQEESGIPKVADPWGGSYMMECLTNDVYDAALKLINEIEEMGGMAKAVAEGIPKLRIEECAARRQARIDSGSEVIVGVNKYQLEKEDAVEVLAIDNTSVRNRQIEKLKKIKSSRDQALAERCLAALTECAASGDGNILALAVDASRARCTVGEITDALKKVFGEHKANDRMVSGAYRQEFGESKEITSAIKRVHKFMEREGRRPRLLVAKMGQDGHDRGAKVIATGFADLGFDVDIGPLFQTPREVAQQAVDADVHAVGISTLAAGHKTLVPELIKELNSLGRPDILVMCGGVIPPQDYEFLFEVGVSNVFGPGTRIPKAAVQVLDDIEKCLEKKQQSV
# Variants of: B1
# Conditions: with muta_human MMUT
row,Variant,effect of a mutation on the interaction
1,MPMLLPHPHQHFLKGLLRAPFRCYHFIFHSSTHLGSGIPCAQPFNSLGLHCTKWMLLSDGLKRKLCVQTTLKDHTEGLSDKEQRFVDKLYTGLIQGQRACLAEAITLVESTHSRKKELAQVLLQKVLLYHREQEQSNKGKPLAFRVGLSGPPGAGKSTFIEYFGKMLTERGHKLSVLAVDPSSCTSGRSLLGDKTRMTELSRDMNAYIRPSPTRGTLGGVTRTTNEAILLCEGAGYDIILIETVGVGQSEFAVADMVDMFVLLLPPAGGDELQGIKRGIIEMADLVAVTKSDGDLIVPARRIQAEYVSALKLLRKRSQVWKPKVIRISARSGEGISEMWDKMKDFQDLMLASGELTAKRRKQQKVWMWNLIQESVLEHFRTHPTVREQIPLLEQKVLIGALSPGLAADFLLKAFKSRD [G188R],disrupting interaction strength
